Earlier results on two substances are cited in paper PMC11264262.

One data set concerns the target His200 (UniProt position 200, RKGTVHDTALT).
A further data set addresses Glu73 (UniProt position 107, IFSNREGKLPG). To be noted: folded protein.

With “Homoprotocatechuate 2,3-dioxygenase (HPCD) (Brevibacterium fuscum (inferred; organism not stated in the article))”, in the data set with His200, the pKa result was “ca. 7.65”.

For “Barnase (Bacillus amyloliquefaciens (inferred; organism not stated in the article))”, the pKa in the data set with Glu73 was 2.1.
